According to patent US20200121712A1, “AGENT TO BE APPLIED TO OPHTHALMIC DEVICE” (SEIKAGAKU CORPORATION, priority 2015, published 2020):

Tested on: mucin
Assay: Viscosity increasing effect by interaction with mucin (rotatory viscometer)
Format: physicochemical
Conditions: for rate of increase in viscosity (increase in value of viscosity divided by viscosity of sample 3): 1.0 w/v % mixed with 20 w/v % mucin solution (final concentration 0.5 w/v %)
Description: In general, with respect to a film of a lubricant formed on a friction surface for reducing friction under the maintained state of fluid friction, the higher the viscosity of the lubricant, the higher the stability of the film of the lubricant. Therefore, the friction reducing effect of the cinnamic acid derivative was evaluated using, as an index, the increase in viscosity due to the interaction of the derivative with mucin contained in the tear fluid.
HA-3APC prepared in Example 1 was dissolved in PBS (pH 7.4) to thereby prepare solutions having concentrations of 1 w/v %, 0.5 w/v % and 0.25 w/v %.
Similarly, HA was dissolved in PBS (pH 7.4) to thereby prepare an HA solution having a concentration of 1 w/v %.
0.4 mL of each of these samples (1 w/v % HA-3APC, 0.5 w/v % HA-3APC, 0.25 w/v % HA-3APC and 1 w/v % HA) having added thereto 0.4 mL of 20 w/v % mucin was sample 1 for measurement.
A sample of 0.4 mL of 20 w/v % mucin having added thereto 0.4 mL of PBS was sample 2 for measurement.
A sample prepared in substantially the same manner as in sample 1 for measurement except that 0.4 mL of PBS was added in place of mucin was sample 3 for measurement.
Each sample for measurement was subjected, immediately after thorough mixing, to measurement of viscosity (shear rate: 100 S^−1, temperature: 35° C.) using a rotatory viscometer (ADVANCED RHEOMETER (TA Instruments)), and increase in value of viscosity was obtained by the following formula.
Increase in value of viscosity=μ1−μ2−μ3
μ1: Viscosity of sample 1 for measurement
μ2: Viscosity of sample 2 for measurement
μ3: Viscosity of sample 3 for measurement
Comparison of the strength of the interaction with mucin was carried out between HA and HA-3APC based on the standardized rate of increase in viscosity obtained by dividing the increase in value of viscosity with the viscosity of sample 3 for measurement. Such a means for standardization is frequently used in comparison of interactions with mucin among different test substances (for example, J. Ocul Pharmacol Ther. 2007.23(6): 541-50).

## hyaluronic acid [HA, reference compound]
Shear rate 100 S^-1, 35° C.
  rate of increase in viscosity (increase in value of viscosity divided by viscosity of sample 3): 2.49

## HA having covalently bonded thereto a cinnamic acid aminopropyl ester [HA-3APC]
0.25, 0.5 and 1.0 w/v % mixed with 20 w/v % mucin (final 0.125, 0.25, 0.5 w/v %), shear rate 100 S^-1, 35° C.
  increase in value of viscosity (strength of interaction with mucin): increased depending on the concentration
1.0 w/v % (final concentration 0.5 w/v %) with 20 w/v % mucin
  rate of increase in viscosity relative to that of HA: about 1.5 times
Shear rate 100 S^-1, 35° C.
  rate of increase in viscosity (increase in value of viscosity divided by viscosity of sample 3): 3.65
